Read-outs that look alike come from different tables or passages of the source.
B1: ICAM-2: biochemically purified soluble human ICAM-2 protein from retrovirally transduced NIH3T3 cells; ICAM-2-FC fusion also used (protein, UniProt P13598 25-223, looked up)
extracellular domain: KVFEVHVRPKKLAVEPKGSLEVNCSTTCNQPEVGGLETSLDKILLDEQAQWKHYLVSNISHDTVLQCHFTCSGKQESMNSNVSVYQPPRQVILTLQPTLVAVGKSFTIECRVPTVEPLDSLTLFLFRGNETLHYETFGKAAPAPQEATATFNSTADREDGHRNFSCLAVLDLMSRGGNIFHKHSAPKMLEIYEPVSDSQ
modifications: extracellular domain
notes: biochemically purified soluble human ICAM-2 protein from retrovirally transduced NIH3T3 cells; ICAM-2-FC fusion also used

Experiments:
LFA-1 = LFA-1 activation by mAb24-Alexa633 staining, flow cytometry; type: cell-based, human; conditions: Jurkat cells, agents 10 μM 30 min, PMA 1 μg/ml, prior to ICAM-2 10 μg/ml 30 min
Method: A) Confocal microscopy of actin and microtubule architecture upon ICAM-2, stimulus (10, μg/ml, 30, min) in Jurkat cells. Actin was stained by phalloidin-alexa633, and tubulin by taxol-alexa546. Inserts display enlarged cell image of representative treatment B) Flow cytometric staining for actin and microtubules as described above. C) Left: Fluorescence topography analysis of ICAM-2-FITC (1 μg/ml, time as indicated) surface distribution. Intensity color gradient depicts high and low fluorescent intensity values. Right: Confocal microscopy of ICAM-2-FITC surface binding (10 μg/ml, 30, min) and anti-β2-alexa568, (clone CTB104). D) Staining for ICAM-2-FITC surface binding (fluorescence intensity) and surface distribution (fluorescence pulse) in cytochalisin D treated Jurkat cells at 37° C. and 4° C. by flow cytometry. E) Values for ICAM-2-FITC fluorescence intensity per time-of-flight per cell as described in text. F) Flow cytometric staining for LFA-1 activation by mAb24-alexa633. Stimuli as indicated (10, μM, 30, min), PMA (1, μg/ml) prior to ICAM-2, stimulation (10, μg/ml, 30, min). Staining was performed at 37° C. G) Mean fluorescence intensity (MFI) values of mAb24-633, and ICAM-2, cluster values, computed as described above, as a function of time.
Intracellular and extracellular staining was performed as described (Perez and Nolan, 2002). Intracellular probes for active kinases were made by conjugating phospho-specific antibodies to the ALEXA FLUOR® dye series as described and used in phospho-protein optimized conditions (Perez and Nolan, 2002). Kinetic analyses was performed by direct application of fixation buffer in time synchronized 96-wells maintained at 37° C. Intracellular actin and microtubule staining was performed using phalloidin-Alexa633 and taxol-Alexa546 dyes (Molecular Probes). Adhesion and clustering assays were performed using ICAM-2-FITC as described in text. LFA-1 activation was assessed by either mAb24-Alexa633 or mAb24-Alexa546 conjugate, surface stained at 37° C. Flow cytometry data are representative of 3 independent experiments of 10^6 cells/sample. 10-50,000 events were collected and manually calibrated on a FACSCalibur™ machine. Data plotted in bar graph format is expressed as geometric mean fluorescence intensity (MFI) and normalized for isotype controls. Log ratios are defined as the MFI of stimulus to the MFI of unstimulated cells. Data was analyzed using Flowjo™ software (Treestar).

cell surface LFA-1 = target: T1, cell surface LFA-1 (Homo sapiens, UniProt P20701); assay: ICAM-2-FITC surface binding on Jurkat cells by flow cytometry (single cell binding measurements)
T1 construct: within the physiological context of cell surface LFA-1; endogenous in cells; host or cells: Jurkat T cells
T1 sequence (P20701 26-1170): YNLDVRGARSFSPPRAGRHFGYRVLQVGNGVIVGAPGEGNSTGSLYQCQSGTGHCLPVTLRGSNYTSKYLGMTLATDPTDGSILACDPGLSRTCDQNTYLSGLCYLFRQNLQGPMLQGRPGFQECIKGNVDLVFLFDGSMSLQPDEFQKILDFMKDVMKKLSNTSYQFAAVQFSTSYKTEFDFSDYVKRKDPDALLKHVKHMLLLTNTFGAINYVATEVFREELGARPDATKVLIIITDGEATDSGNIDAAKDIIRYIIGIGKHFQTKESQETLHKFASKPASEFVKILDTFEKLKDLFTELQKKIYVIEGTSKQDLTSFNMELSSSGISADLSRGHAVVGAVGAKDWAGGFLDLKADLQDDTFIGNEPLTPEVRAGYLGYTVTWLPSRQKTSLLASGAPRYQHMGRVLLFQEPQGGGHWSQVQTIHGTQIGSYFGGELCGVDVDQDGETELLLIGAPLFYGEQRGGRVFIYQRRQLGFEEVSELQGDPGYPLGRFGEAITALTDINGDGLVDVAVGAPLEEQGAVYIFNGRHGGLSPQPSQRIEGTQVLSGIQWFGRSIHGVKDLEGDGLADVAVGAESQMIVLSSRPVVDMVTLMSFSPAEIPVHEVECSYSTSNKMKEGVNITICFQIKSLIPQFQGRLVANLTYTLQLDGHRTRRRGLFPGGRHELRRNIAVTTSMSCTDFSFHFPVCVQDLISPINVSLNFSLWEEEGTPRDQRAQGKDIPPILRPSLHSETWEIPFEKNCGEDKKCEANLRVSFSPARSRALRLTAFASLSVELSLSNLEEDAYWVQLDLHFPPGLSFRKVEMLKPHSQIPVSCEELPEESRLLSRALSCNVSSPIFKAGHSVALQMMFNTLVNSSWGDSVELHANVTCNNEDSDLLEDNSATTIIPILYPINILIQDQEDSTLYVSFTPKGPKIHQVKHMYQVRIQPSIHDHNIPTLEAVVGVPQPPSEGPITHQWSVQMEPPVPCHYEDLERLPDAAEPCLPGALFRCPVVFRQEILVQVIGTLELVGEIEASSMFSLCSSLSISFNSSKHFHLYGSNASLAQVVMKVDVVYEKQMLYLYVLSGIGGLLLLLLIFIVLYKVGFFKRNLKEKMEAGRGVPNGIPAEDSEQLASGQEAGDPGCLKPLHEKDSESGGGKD
T1 sequence (P05107 23-769 partner): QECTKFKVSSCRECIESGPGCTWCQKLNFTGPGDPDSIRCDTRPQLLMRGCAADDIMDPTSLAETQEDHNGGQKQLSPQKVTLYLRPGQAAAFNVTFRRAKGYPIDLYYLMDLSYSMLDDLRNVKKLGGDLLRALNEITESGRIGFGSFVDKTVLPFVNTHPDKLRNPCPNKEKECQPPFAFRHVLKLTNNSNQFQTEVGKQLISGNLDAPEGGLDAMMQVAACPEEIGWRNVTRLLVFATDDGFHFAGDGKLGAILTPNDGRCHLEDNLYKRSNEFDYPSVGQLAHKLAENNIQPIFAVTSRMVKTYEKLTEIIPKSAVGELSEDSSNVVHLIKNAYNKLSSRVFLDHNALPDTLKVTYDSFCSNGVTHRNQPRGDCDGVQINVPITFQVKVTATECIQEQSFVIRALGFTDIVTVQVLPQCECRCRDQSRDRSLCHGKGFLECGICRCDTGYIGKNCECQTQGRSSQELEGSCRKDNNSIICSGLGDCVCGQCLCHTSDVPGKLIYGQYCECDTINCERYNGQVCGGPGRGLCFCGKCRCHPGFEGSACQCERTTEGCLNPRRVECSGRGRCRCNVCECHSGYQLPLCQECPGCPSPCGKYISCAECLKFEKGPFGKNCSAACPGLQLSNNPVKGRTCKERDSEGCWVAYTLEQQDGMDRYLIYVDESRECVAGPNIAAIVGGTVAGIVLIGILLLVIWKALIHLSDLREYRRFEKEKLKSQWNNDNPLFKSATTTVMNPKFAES
Method: A) Purified human ICAM-2, from retrovirally transduced NIH3T3, (see materials and methods) was tested for purity, size, and aggregate formation by native gel electrophoresis and gel filtration. Analysis of purified ICAM-2, from two different preps and ICAM2-FC from NSO cells. Molecular weight was calculated using relative distance migration from a molecular weight standard. Concentration was determined using serial dilutions of BSA as a standard. […] B) ICAM-2, ligand binding to cell surface as a function of time. 5×10^6, unstimulated and PMA stimulated (1, μg/ml, 30, min) Jurkat T cells were incubated with ICAM-2-FITC or LFA-1-FITC antibody (1, μg/ml) and subjected to time dependent flow cytometry. Mean fluorescence intensity was plotted per time of a gated homogenous cell population. Flow rate was maintained at 200-300, cells/second, with fluorescence intensity values acquired at 10, millisecond intervals for 1200, seconds. C) Flow cytometric analysis of ICAM-2-FITC and a-LFA-1-FITC surface binding on cytochalisin D treated (10, μM, 30, min) Jurkat cells at 37° C. and 4° C. D) Curve fit analysis of ICAM-2-FITC binding per 10^4, cells. Jurkat cells were incubated with ICAM-2-FITC at 37° C. for 30, min at indicated concentrations in 50, μL volume. Cells were washed 1×, and analyzed for mean fluorescent intensity (MFI) of 10^4, cells. Percent ICAM-2-FITC bound was calculated from the following equation: 100×[(MFI[×]−MFIunstained)/(MFI[saturated]−MFIunstained)] where [×]=ICAM-2-FITC concentration and [saturated]=concentration that saturated binding. Values were fit to the equation Y=m1*M0/(m2+M0) (see materials and methods).
Full length ICAM2 cDNA was obtained from Jurkat cells and cloned into retroviral vector PBM-Z-IN at the BamHI/Sal1 site as described (Perez et al., 2002). Human ICAM-2 was overexpressed in NIH3T3 cells by retroviral infection and harvested by immunoaffinity chromatography. ICAM-2 was affinity purified using a two step lysing procedure and subsequent purification on an anti-ICAM-2 solid support. […] Batch lysate of harvested supernatant was performed (4° C., for 2 hrs), and washed 4 times in buffer C (0.1% Tween-20, PBS pH 7.4). ICAM-2 protein was eluted by 4.5 M NaCl (in Tris pH 6.8), dialyzed overnight (in PBS pH 7.4, 0.001% azide, 0.01% glycerol, 4° C.), concentrated using size exclusion spin chromatography and stabilized using 0.01% glycerol. Anti-ICAM-2 solid support was re-equilibrated in buffer C, stored in 0.001% thimerosol and re-used up to 3 times. Purity was >98% as assessed by coomasie gel. […] Gel imaging was performed on a VersaDoc machine (Biorad) and analyzed using Quantity One quantitation software (Biorad). […]

| Molecule | LFA-1 activation (mAb24 binding) (LFA-1) | ICAM-2 adhesion measured by binding of ICAM-2-FITC (cell surface LFA-1; PKC inhibitor treated cells) | LFA-1 activation (mAb24 binding) (LFA-1; listed as full length ICAM-2) | Kd (cell surface LFA-1; Jurkat cells, 37° C., 30 min, curve fit analysis, read-out: dissociation constant of ICAM-2-FITC binding) | Kd (cell surface LFA-1; per 10^4 cells, read-out: calculated ICAM-2 affinity) |
| --- | --- | --- | --- | --- | --- |
| CN(C)CCCn1cc(C2=C(c3c[nH]c4ccccc34)C(=O)NC2=O)c2ccccc21 [bisindolymaleimide I] | inhibited ICAM-2 induced LFA-1 activation | not affected | – | – | – |
| B1 | bimodal population in active LFA-1 | – | resulted in active LFA-1 | 210 ± 70 nM | 217 ± 66 nM |

— US8962263B2, “Methods and compositions for detecting the activation state of multiple proteins in single cells” (The Board of Trustees of the Leland Stanford Junior …, priority 2001, dated 2015)
